{"source": "paper PMC8771699", "about": "(ACS Omega, 2022)", "experiment": "FE-SEM self-assembly", "type": "physicochemical", "conditions": "HEPES pH 7.4, porphyrin 1.15 × 10^–3 M, peptide 2.3 × 10^–3 M, time of incubation 7 days"}
{"sequence": "RGDSGAITIGH [RGDSGAITIGH + Py3P-Lys-NTA + Ni^2+]", "values": [{"measurement": "self-assembled nanostructure morphology", "value": "porous fibrillar network"}]}
